Assay results: article PMC6978714 (2019)
No end group written: not given here.

B1: thioredoxin-fused MBP 146-170 (MBP epitope library), biotinylated (peptide)
chain: DAQGTLSKIFKLGGRDSRSGSPMAR
modifications: not fully specified; also: thioredoxin-fused, end not given here, biotinylated chemically (EZ-Link Sulfo-NHS-LC-biotin, 1:20), position not given here
B2: thioredoxin-fused MBP 81-104 (MBP epitope library), biotinylated (peptide)
chain: TQDENPVVHFFKNIVTPRTPPPSQ
modifications: not fully specified; also: thioredoxin-fused, end not given here, biotinylated chemically (EZ-Link Sulfo-NHS-LC-biotin, 1:20), position not given here

Biological target: recombinant HLA-DRB1*01:01 protein (HLA-DR α chain with DRB1*01:01 β chain) (human)

Row | Binder | Kd [nM]
1 | B1 | 101
2 | B2 | 103
3 | TQDENPVVHFFKNIVTPRTPPPSQ (also: biotinylated, position not given here) [chemically synthesized biotinylated peptide MBP 81-104] | 22
4 | DAQGTLSKIFKLGGRDSRSGSPMAR (also: biotinylated, position not given here) [chemically synthesized biotinylated peptide MBP 146-170] | 52
